Biological target: the molecule itself
Assay: SEC-MALS; SEC-MALLS; Superdex 200 Increase 10/300; 120 µl sample at 1–6 mg/ml; 50 mM HEPES pH 7.5, 150 mM NaCl, 0.5 mM TCEP, 3 mM NaN3; 0.5 ml/min

Protein	stoichiometry N
TRIM6 RING domain (residues 1-87), wild type (domain or fragment, human, UniProt Q9C030 1-87, looked up, TRIM6, human, RING domain, residues 1-87; Forms dimers in solution by SEC-MALLS; The His6 tag is HRV 3C cleavable; also called TRIM6 RING WT; source: E. coli BL21, purified (Ni-NTA, size-exclusion chromatography)) MTSPVLVDIREEVTCPICLELLTEPLSIDCGHSFCQACITPNGRESVIGQEGERSCPVCQTSYQPGNLRPNRHLANIVRRLREVVLG	2
TRIM22 RING domain (residues 1-87), wild type (domain or fragment, human, UniProt Q8IYM9 1-87, looked up, TRIM22, human, RING domain, residues 1-87; Monomer-dimer equilibrium by SEC-MALLS; The His6 tag is HRV 3C cleavable; also called TRIM22 RING WT; source: E. coli BL21, purified (Ni-NTA, size-exclusion chromatography)) MDFSVKVDIEKEVTCPICLELLTEPLSLDCGHSFCQACITAKIKESVIISRGESSCPVCQTRFQPGNLRPNRHLANIVERVKEVKMS	2

Source: PMC11992055, “Identification of RING E3 pseudoligases in the TRIM protein family” (Nature Communications, 2025)
